From patent US20130230533A1 (Regeneron, published 2013)
Numbering of substitutions follows the chain as printed. Names and notes keep the numbering of the source. One block for each binder: values may come before it.

How the values were obtained:
[1] = target: T1, biotinylated dimeric human CD48 protein expressed as a fusion with mouse IgG2a Fc (human, biotinylated); assay: competition ELISA; blocks bio-hCD48-mFc binding to coated h2B4-mFc
T1 construct: also called bio-hCD48-mFc; Dimeric human CD48-mFc
T1 chain: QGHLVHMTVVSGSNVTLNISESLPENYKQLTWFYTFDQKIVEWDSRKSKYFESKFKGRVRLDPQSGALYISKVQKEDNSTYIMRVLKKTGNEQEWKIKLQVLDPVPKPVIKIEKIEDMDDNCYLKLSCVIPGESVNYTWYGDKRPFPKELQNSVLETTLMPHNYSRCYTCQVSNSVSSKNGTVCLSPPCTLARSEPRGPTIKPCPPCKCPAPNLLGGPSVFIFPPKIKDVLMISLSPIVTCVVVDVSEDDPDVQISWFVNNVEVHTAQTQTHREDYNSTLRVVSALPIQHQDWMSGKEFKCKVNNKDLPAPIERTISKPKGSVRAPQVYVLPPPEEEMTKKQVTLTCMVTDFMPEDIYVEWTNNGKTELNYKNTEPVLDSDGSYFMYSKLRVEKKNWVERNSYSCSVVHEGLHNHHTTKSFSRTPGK
Method: (§1) The ability of human anti-CD48 monoclonal antibodies to block human CD48 and monkey CD48 binding to the human cognate ligand, human 2B4, was measured using a competition sandwich ELISA (Table 8). Constant amounts of biotinylated dimeric human CD48 protein expressed as a fusion with mouse IgG2a Fc (“bio-hCD48-mFc” [SEQ ID NO: 387]) or monomeric monkey CD48 expressed with a tag consisting of 2 myc and one 6-His epitopes (“mfCD48-mmH” [SEQ ID NO: 386]) were separately titrated with varying amounts of antibodies. These antibody-protein complexes were incubated (1 hr, 25° C.) before being transferred to microtiter plates coated with a dimeric construct expressing the human 2B4 receptor fused to a either human IgG1 (h2B4-hFc [R&D Systems, Inc., Minneapolis, Minn., Cat. No. 1039-2B]) or mouse IgG2a Fc (h2B4-mFc [SEQ ID NO: 389). After a 1 hr at 25° C. the wells were washed and bound human CD48 was detected with streptavidin conjugated with horse-radish peroxidase (HRP), and monkey CD48 was detected with an HRP conjugated anti-myc polyclonal antibody. The ELISA was developed with a TMB solution to produce a colorimetric reaction and quenched with sulfuric acid before reading absorbance at 450 nm on a Victor X5 plate reader. Sigmoidal dose response curves were fit to the data using Prism™ software. […] (Tables 8 and 9, NB=no binding observed)

[2] = target: T2, monomeric monkey CD48 expressed with a tag consisting of 2 myc and one 6-His epitopes (monkey); assay: competition ELISA; blocks mfCD48-mmH binding to coated h2B4-mFc
T2 construct: also called mfCD48-mmH; Monomeric monkey CD48-mmH
T2 chain: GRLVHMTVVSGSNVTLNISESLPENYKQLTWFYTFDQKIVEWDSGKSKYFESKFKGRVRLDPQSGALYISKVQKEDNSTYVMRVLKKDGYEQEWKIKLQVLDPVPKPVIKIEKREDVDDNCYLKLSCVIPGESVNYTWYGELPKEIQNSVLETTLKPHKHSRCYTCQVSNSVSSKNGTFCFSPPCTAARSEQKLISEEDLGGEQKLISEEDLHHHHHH
Method: as §1

[3] = target: T3, human CD48 (on primary human peripheral blood mononuclear cells) (human, UniProt P09326 27-220); assay: cell-based or functional assay
T3 sequence: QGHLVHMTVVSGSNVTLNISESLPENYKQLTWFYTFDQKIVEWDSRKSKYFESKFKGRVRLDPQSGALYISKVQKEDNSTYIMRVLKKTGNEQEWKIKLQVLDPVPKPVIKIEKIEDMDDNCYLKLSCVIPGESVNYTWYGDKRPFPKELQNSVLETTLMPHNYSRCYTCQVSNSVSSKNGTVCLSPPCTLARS

[4] = target: T3, human CD48 (on primary human peripheral …); assay: cell-based or functional assay; remark: listed apart in the source
[5] = target: T3, human CD48 (on primary human peripheral …); assay: cell-based or functional assay; remark: listed apart in the source
[6] = target: T3, human CD48 (on primary human peripheral …); assay: cell-based or functional assay; remark: listed apart in the source

B3: H4H1707N (antibody, V domains shown)
VH: EGQLLESGGGLAQPGGSLRLSCAASGITFGRYAMSWVRQAPGKGLEWVSLISGSGGSTYHADSVKGRFTISRDNSKNTLYLQMNSLRAEDTAVYYCAIYNNYNWFDPWGQGTLVTVSS
VL: EIVLTQSPGTLSLSPGERATLSCRASQSVSSNYLAWYQQKPGQAPRLLIYDASSRATDIPDRFSGSGSGTDFTLTISRLEPEDFAVYYCQQYGSSPRTFGQGTKVEIK
notes: Human IgG4 Fc (H4H) form of 1707N
IC50 [1]: 22 pM
% Blockade of IFNγ release, MLR; D1 [4]: 66%
% Blockade of IFNγ release, MLR; D2 [4]: 87%
% Blockade of IFNγ release, MLR; D3 [4]: 78%
% Blockade of IFNγ release, MLR; D4 [4]: 20%
% Blockade of IFNγ release, MLR; D5 [4]: 62%
% Blockade of IFNγ release, MLR; D6 [4]: 77%
% Blockade of IFNγ release, MLR; D7 [4]: 62%
% Blockade of IFNγ release, MLR; D8 [4]: 42%
% Blockade of IFNγ release, MLR; D9 [4]: 60%
IC50 [2]: 45 pM
Inhibition of IFN-gamma Release IC50; Donor 9 [5]: 5.1e-11 Molar

B4: H4H1763N (antibody, human IgG4, V domains shown)
VH: QIQLVQSGAEMKRPGTSVKVSCKASGYTFTSYGINWVRQAPGQGLEWMGWISAYNGDTNYAQKLQGRVTMTTDTSTTTAYMEVRSLRSDDTAVYYCARFLTGTKDYYYGMDVWGQGTTVTVSS
VL: DIQMTQSPSSLSASVGDRVTITCQASQDISNFLNWYQQKPGKAPDLLINDASILETGVPSRFSGSGSGTDFTLTINNLQPEDIATYYCQQYDNLPLTFGGGTKVEIK
notes: Human IgG4 Fc (H4H) form of 1763N
IC50 [1]: 7.4 pM
% Blockade of IFNγ release, MLR; D1 [4]: 59%
% Blockade of IFNγ release, MLR; D2 [4]: 89%
% Blockade of IFNγ release, MLR; D3 [4]: 68%
% Blockade of IFNγ release, MLR; D4 [4]: 52%
% Blockade of IFNγ release, MLR; D5 [4]: 63%
% Blockade of IFNγ release, MLR; D6 [4]: 75%
% Blockade of IFNγ release, MLR; D7 [4]: 48%
% Blockade of IFNγ release, MLR; D8 [4]: 30%
% Blockade of IFNγ release, MLR; D9 [4]: 53%
IC50 [2]: 7.2 pM
IC50 of IFNγ release, MLR; D1 [6]: ~10 pM
IC50 of IFNγ release, MLR; D3 [6]: ~6.4 pM
IC50 of IFNγ release, MLR; D4 [6]: 210 pM
IC50 of IFNγ release, MLR; D5 [6]: ~27 pM
IC50 of IFNγ release, MLR; D6 [6]: 23 pM
IC50 of IFNγ release, MLR; D8 [6]: ~3700 pM
IC50 of IFNγ release, MLR; D9 [6]: ~4100 pM
IC50 of IFNγ release, MLR; D10 [6]: ~84 pM
IC50 of IFNγ release, MLR; D11 [6]: 73 pM
IC50 of IFNγ release, MLR; D12 [6]: ~56 pM
IC50 of IFNγ release, MLR; D13 [6]: 92 pM
IC50 of IFNγ release, MLR; D14 [6]: 63 pM
IC50 of IFNγ release, MLR; D15 [6]: ~0.059 pM
IC50 of IFNγ release, MLR; D16 [6]: 7.6 pM
Inhibition of IFN-gamma Release IC50; Donor 8 [5]: 8.6e-12 Molar
Inhibition of IFN-gamma Release IC50; Donor 9 [5]: 9.3e-12 Molar
Inhibition of IFN-gamma Release IC50; Donor 10 [5]: 1e-12 Molar
Inhibition of IFN-gamma Release IC50; Donor 11 [5]: 3.4e-12 Molar

B5: H4H1771P (antibody, human IgG4, V domains shown)
VH: QVQLVQSGTEVKKPGASVKVSCKVSGYTLIDLSIHWVRQAPGEGLEWMGGFDPEESETIYAQKFQGRVTMTEDTSTDTAYMELSSLRSEDTAVYYCVTEPIFGILIHESWGQGTLVTVSS
VL: DIVMTQTPLSSPVTLGQPASISCRSSHSPVHSNGHTYLSWLQQRPGQPPRILIYKISRRFSGVPDRFSGSGAGTDFTLKISRVETEDVGIYYCMQASQFPWTFGQGTKVEIK
notes: Human IgG4 Fc (H4H)
IC50 [1]: 9.9 pM
% Blockade of IFNγ release, MLR; D1 [4]: 78%
% Blockade of IFNγ release, MLR; D2 [4]: 79%
% Blockade of IFNγ release, MLR; D3 [4]: 88%
% Blockade of IFNγ release, MLR; D5 [4]: 47%
% Blockade of IFNγ release, MLR; D6 [4]: 50%
% Blockade of IFNγ release, MLR; D7 [4]: 36%
% Blockade of IFNγ release, MLR; D9 [4]: 32%
IC50 [2]: 2.2 pM
Inhibition of IFN-gamma Release IC50; Donor 11 [5]: 1.5e-11 Molar

B6: H4H1764N (antibody, human IgG4, V domains shown)
VH: QVQLVESGGGVVQPGRSLRLSCAASGFTFSDYGMHWVRQAPGKGLEWVAVIWNDGSNKNYADSVKGRFSISSDSSKNTLYLHMNSLRAEDTAVYYCARSLYSTSPWYFDLWGRGTLVTVSS
VL: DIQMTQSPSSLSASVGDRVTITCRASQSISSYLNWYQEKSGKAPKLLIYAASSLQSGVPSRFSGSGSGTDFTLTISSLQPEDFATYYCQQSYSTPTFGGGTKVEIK
notes: Human IgG4 Fc (H4H) form of 1764N
IC50 [1]: 76 pM
% Blockade of IFNγ release, MLR; D1 [4]: 69%
% Blockade of IFNγ release, MLR; D2 [4]: 46%
% Blockade of IFNγ release, MLR; D3 [4]: 80%
% Blockade of IFNγ release, MLR; D5 [4]: 75%
% Blockade of IFNγ release, MLR; D6 [4]: 59%
% Blockade of IFNγ release, MLR; D7 [4]: 48%
IC50 [2]: 160 pM
Inhibition of IFN-gamma Release IC50; Donor 8 [5]: 5.3e-12 Molar
Inhibition of IFN-gamma Release IC50; Donor 9 [5]: 3.1e-11 Molar
Inhibition of IFN-gamma Release IC50; Donor 10 [5]: 5.1e-12 Molar
Inhibition of IFN-gamma Release IC50; Donor 11 [5]: 2.3e-11 Molar

Second part, the binder after the results:

IC50 [1]: 18 pM
IC50 [2]: 8.1 pM
Inhibition of IFN-gamma Release IC50; Donor 6 [3]: 3.6e-11 Molar
Inhibition of IFN-gamma Release IC50; Donor 7 [3]: 1.5e-11 Molar
B1: H4H1781P (antibody, human IgG4, V domains shown)
VH: QVQLVESGGGVVQPGRSLRLSCAASGFTFSNYGMHWVRQAPGKGLEWVAVIWYDDSNKNYADSVKGRFTISRDNSKNTLYLQMNSLRVEDTAVYYCARDRWTYSHFFEYWGQGTLVTVSS
VL: DIQMTQSPSSVSASVGDRVTITCRASQGISSWLAWYQQKPGKAPNLLIYAASSLQSGVPSRFGGSGSGTDFSLTISGLQPEDFATYYCQQANSFPRTFGQGTKVEIK
notes: Human IgG4 Fc (H4H)

IC50 [1]: 16 pM
IC50 [2]: 5.7 pM
Inhibition of IFN-gamma Release IC50; Donor 6 [3]: 1.7e-12 Molar
Inhibition of IFN-gamma Release IC50; Donor 7 [3]: 1.5e-11 Molar
B2: H4H1779P (antibody, human IgG4, V domains shown)
VH: B1 VH with D55E, N57S, N59H, K76Q, N84T, V88A, F106Y
VL: B1 VL with G28D, L33V, N45K, G63S, S72T, G77S
notes: Human IgG4 Fc (H4H)
